# Results: patent publication US20230227838A1, “ENHANCED CELL SURVIVAL AGAINST BIOTIC AND ABIOTIC STRESSES THROUGH SALICYLICK ACID-INDUCED NPR1 CONDENSATES” (priority 2020, published 2023)
# Target: sim3-GFP (Arabidopsis thaliana) (UniProt P93002)
# Assay: sim3-GFP IP, LC-MS/MS
# Sequence of sim3-GFP (Arabidopsis thaliana) (P93002 other isoform, or with tags, fused parts or gaps): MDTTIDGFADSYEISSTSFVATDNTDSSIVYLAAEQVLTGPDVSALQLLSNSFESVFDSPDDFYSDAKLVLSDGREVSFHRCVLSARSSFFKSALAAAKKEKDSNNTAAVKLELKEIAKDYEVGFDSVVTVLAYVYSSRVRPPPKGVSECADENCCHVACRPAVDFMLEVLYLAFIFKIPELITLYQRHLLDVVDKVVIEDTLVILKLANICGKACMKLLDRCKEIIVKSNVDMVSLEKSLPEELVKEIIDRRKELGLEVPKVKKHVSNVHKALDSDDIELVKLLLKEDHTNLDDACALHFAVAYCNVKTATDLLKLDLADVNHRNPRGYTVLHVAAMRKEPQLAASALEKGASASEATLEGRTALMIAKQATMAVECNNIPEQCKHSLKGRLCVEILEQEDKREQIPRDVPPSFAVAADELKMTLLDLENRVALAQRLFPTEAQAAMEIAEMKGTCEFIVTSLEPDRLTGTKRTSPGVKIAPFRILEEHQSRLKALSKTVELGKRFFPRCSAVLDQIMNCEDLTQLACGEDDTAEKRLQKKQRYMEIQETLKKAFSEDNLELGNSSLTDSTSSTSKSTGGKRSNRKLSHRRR
# Sequence of EFE, ethylene-forming enzyme (Q06588 whole entry): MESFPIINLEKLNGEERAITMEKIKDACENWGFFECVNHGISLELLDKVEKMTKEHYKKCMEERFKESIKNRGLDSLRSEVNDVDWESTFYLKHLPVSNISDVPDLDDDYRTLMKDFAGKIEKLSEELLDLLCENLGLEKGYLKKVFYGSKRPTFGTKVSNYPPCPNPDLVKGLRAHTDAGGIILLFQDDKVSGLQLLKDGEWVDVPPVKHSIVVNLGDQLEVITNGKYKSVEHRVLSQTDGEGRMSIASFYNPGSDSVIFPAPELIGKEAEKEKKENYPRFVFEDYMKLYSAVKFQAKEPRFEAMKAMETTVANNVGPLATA
# Sequence of TPS10, trehalose phosphate synthase (O80738 whole entry): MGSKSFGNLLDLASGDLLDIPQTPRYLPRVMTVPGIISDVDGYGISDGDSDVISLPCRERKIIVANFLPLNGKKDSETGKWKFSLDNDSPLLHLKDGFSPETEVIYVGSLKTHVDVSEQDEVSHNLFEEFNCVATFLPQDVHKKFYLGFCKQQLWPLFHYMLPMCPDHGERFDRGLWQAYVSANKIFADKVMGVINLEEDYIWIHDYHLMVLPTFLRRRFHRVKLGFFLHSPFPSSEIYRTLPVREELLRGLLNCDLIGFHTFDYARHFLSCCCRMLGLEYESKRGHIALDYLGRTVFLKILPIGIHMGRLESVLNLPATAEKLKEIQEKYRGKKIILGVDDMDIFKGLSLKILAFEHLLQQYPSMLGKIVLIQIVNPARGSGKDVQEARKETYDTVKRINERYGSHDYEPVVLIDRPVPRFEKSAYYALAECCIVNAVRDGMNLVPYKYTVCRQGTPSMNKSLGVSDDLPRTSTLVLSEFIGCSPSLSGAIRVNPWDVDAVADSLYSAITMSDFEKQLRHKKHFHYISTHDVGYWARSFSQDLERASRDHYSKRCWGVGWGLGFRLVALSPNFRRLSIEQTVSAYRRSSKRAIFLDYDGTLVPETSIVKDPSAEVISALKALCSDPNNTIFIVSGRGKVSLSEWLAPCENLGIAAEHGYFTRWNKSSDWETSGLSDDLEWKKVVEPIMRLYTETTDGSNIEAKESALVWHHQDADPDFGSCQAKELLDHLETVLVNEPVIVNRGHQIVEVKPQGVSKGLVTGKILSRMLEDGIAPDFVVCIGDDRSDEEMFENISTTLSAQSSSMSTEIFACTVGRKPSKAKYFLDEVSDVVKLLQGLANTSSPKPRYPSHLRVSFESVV
# Sequence of RNR1, ribonucleotide reductase 1 (Q9SJ20 whole entry): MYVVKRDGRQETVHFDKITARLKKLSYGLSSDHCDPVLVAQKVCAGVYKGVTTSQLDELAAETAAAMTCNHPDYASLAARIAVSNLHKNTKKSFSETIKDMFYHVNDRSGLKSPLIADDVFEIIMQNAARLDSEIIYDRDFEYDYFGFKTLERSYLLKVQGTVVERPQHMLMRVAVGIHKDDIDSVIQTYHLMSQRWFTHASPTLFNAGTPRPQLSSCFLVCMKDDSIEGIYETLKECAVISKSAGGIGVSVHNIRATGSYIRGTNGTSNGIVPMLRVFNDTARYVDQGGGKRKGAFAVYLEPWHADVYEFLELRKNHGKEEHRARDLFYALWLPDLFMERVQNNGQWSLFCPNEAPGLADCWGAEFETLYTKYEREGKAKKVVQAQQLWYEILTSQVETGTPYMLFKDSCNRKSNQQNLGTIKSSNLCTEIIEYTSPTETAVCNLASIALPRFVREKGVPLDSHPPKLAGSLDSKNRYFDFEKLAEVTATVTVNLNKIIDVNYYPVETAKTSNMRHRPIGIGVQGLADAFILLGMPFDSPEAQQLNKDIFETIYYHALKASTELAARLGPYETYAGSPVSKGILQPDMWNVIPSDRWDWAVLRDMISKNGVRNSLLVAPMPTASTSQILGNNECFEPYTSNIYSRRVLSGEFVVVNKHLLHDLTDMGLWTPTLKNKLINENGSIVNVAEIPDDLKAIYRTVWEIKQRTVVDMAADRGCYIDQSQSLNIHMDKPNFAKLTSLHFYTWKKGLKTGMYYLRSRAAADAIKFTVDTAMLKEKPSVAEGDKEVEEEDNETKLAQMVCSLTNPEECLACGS
# Sequence of RHD3, Root hair defective 3 GTP-binding protein (RHD3) (P93042 whole entry): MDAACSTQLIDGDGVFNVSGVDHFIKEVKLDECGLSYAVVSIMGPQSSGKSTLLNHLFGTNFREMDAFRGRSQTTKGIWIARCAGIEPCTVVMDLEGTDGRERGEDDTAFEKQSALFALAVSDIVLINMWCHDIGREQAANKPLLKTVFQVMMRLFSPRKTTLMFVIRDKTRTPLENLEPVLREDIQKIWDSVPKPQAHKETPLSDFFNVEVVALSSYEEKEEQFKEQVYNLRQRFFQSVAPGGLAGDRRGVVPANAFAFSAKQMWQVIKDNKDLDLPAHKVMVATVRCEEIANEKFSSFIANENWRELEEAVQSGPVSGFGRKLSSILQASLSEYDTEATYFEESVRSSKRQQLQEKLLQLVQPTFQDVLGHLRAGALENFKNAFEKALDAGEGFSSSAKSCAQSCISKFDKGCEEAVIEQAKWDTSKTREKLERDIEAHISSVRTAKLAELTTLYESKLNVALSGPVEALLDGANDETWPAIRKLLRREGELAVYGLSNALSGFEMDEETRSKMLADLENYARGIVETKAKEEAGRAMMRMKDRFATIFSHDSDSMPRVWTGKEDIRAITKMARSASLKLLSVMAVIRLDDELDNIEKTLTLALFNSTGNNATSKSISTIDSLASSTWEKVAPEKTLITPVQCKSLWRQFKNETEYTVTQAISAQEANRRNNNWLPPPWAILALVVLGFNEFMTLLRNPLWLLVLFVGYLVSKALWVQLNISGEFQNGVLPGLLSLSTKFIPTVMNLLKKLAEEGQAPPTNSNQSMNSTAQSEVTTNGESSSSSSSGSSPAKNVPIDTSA
row,Molecule,Normalized Fold Change: SA vs Mock [fold]
1,"RNR1, ribonucleotide reductase 1",2180
2,Transducin/WD40 repeat-like superfamily protein (AT3G15610),2.26
3,"HSP70, heat shock protein 70",4.72
4,"DDB1A, damaged DNA binding protein 1A (from UniProt Q9M0V3 1-1088)",2.52
5,"EFE, ethylene-forming enzyme",2.16
6,NAD(P)-binding Rossmann-fold superfamily protein (AT4G13180),5.46
7,"RHD3, Root hair defective 3 GTP-binding protein (RHD3)",2.86
8,"TPS10, trehalose phosphate synthase",2100
9,"ATPAD4, PAD4, alpha/beta-Hydrolases superfamily protein (from UniProt Q9S745 1-541)",3.23
10,"HDA15, histone deacetylase 15 (protein, UniProt Q8GXJ1 1-552, looked up) Histone deacetylase 15: MVVETIERSCEGSKRRHVNGGDIAVPCSGEECSNGDINVAPGVSAKRARVSREMTFEDIYGADALLNDDDDEDDDCDWEPVQAPMEFVKWCCVNCTMSNPGDMVHCCICGEHKESGILRHGYLASPFFKDTGLIEVEEKYGGSSSATSSTAVGFDERMLLHSEFEVKAQPHPERPDRLRAIAASLATAGVFPGRCLPINAREITKQELQMVHTSEHVDAVDTTSQLLYSYFTSDTYANEYSARAARLAAGLCADLATDIFTGRVKNGFALVRPPGHHAGVRHAMGFCLHNNAAVAALVAQAAGAKKVLIVDWDVHHGNGTQEIFEQNKSVLYISLHRHEGGNFYPGTGAADEVGSNGGEGYCVNVPWSCGGVGDKDYIFAFQHVVLPIASAFSPDFVIISAGFDAARGDPLGCCDVTPAGYSRMTQMLGDLCGGKMLVILEGGYNLRSISASATAVIKVLLGENPENELPIATTPSVAGLQTVLDVLNIQLEFWPSLAISYSKLLSELEARLIENKKNQMKRKVVRVPTWWKWGRKKLLYNFLSARMISRSK",2570
11,"RPP1, Disease resistance protein (TIR-NBS-LRR class) family (protein, UniProt F4J339 1-1194, looked up) Probable disease resistance protein RPP1: MGSVMSLGCSKRKATNQDVDSESRKRRKICSTNDAENCRFIQDESSWKHPWSLCANRVISVAAVALTNFRFQQDNQESNSSSLSLPSPATSVSRNWKHDVFPSFHGADVRRTFLSHIMESFRRKGIDTFIDNNIERSKSIGPELKEAIKGSKIAIVLLSRKYASSSWCLDELAEIMKCRQMVGQIVMTIFYEVDPTDIKKQTGEFGKAFTKTCRGKPKEQVERWRKALEDVATIAGYHSHSWRNEADMIEKISTDVSNMLNSFTPSRDFDGLVGMRAHMDMLEQLLRLDLDEVRMIGIWGPPGIGKTTIARFLFNQVSDRFQLSAIMVNIKGCYPRPCFDEYSAQLQLQNQMLSQMINHKDIMISHLGVAQERLRDKKVFLVLDEVDQLGQLDALAKETRWFGPGSRIIITTEDLGVLKAHGINHVYKVEYPSNDEAFQIFCMNAFGQKQPHEGFDEIAWEVTCLAGELPLGLKVLGSALRGKSKREWERTLPRLKTSLDGKIGSIIQFSYDVLCDEDKYLFLYIACLFNGESTTKVKELLGKFLDVKQGLHLLAQKSLISFDGERIHMHTLLEQFGRETSRKQFVHHGFTKRQLLVGARGICEVLDDDTTDSRRFIGIHLELSNTEEELNISEKVLERVHDFHFVRIDASFQPERLQLALQDLIYHSPKIRSLNWYGYESLCLPSTFNPEFLVELDMRSSNLRKLWEGTKQLRNLKWMDLSYSSYLKELPNLSTATNLEELKLRNCSSLVELPSSIEKLTSLQILDLENCSSLEKLPAIENATKLRELKLQNCSSLIELPLSIGTATNLKQLNISGCSSLVKLPSSIGDITDLEVFDLSNCSSLVTLPSSIGNLQNLCKLIMRGCSKLEALPININLKSLDTLNLTDCSQLKSFPEISTHISELRLKGTAIKEVPLSIMSWSPLADFQISYFESLMEFPHAFDIITKLHLSKDIQEVPPWVKRMSRLRDLSLNNCNNLVSLPQLSDSLDYIYADNCKSLERLDCCFNNPEIRLYFPKCFKLNQEARDLIMHTCIDAMFPGTQVPACFIHRATSGDSLKIKLKESPLPTTLRFKACIMLVKVNEELMSYDQTPMIVDIVIRDEHNDLKEKIYPSIYPSIYPLLTEHIYTFELDVEEVTSTELVFEFPQLNKRNWKIGECGILQRETRSLRRSSSPDLSPESSRVSSYDHCLRGD",13.7
